Patent US20230348881

B1: human MMP12 (matrix metalloproteinase-12) (protein)
chain: GPVWRKHYITYRINNYTPDMNREDVDYAIRKAFQVWSNVTPLKFSKINTGMADILVVFARGAHGDFHAFDGKGGILAHAFGPGSGIGGDAHFDEDEFWTTHSGGTNLFLTAVHEIGHSLGLGHSSDPKAVMFPTYKYVDINTFRLSADDIRGIQSLYG
B2: human MMP7 (protein)
chain: YSLFPNSPKWTSKVVTYRIVSYTRDLPHITVDRLVSKALNMWGKEIPLHFRKVVWGTADIMIGFARGAHGDSYPFDGPGNTLAHAFAPGTGLGGDAHFDEDERWTDGSSLGINFLYAATHELGHSLGMGHSSDPNAVMYPTYGNGDPQNFKLSQDDIKGIQKLYGKRSNSRKK

Tests used:
[1] = target: Mutant 2, modified PPE proprotein with the MMP12 cleavage site, PPE optimized (SEQ ID NO: 9)
Chain of Mutant 2, modified PPE proprotein with the MMP12 cleavage site, PPE optimized (SEQ ID NO: 9) (chain, as listed by the source mutant): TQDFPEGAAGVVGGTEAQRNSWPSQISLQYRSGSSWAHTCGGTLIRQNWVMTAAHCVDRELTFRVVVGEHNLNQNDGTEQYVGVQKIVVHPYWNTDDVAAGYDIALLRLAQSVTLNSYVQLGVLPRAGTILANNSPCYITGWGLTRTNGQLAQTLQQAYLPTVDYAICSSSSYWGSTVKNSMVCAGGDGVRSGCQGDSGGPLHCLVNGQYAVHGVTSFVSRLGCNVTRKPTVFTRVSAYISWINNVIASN

[2] = target: wild-type PPE proprotein as used in Example 2
Chain of wild-type PPE proprotein as used in Example 2 (chain, as listed by the source): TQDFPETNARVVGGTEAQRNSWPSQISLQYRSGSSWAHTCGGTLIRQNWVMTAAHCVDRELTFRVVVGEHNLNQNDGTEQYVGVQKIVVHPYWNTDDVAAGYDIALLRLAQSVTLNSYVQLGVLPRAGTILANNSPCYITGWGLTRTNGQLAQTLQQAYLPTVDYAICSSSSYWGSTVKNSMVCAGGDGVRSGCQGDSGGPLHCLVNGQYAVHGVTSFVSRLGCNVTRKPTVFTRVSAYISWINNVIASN

[3] = target: exemplary modified PPE proproteins
[4] = target: Mutant 3, modified PPE proprotein with the MMP12 cleavage site, balanced (SEQ ID NO: 10)
Chain of Mutant 3, modified PPE proprotein with the MMP12 cleavage site, balanced (SEQ ID NO: 10) (chain, as listed by the source mutant): as the sequence (chain, as listed by the source) above, with T7G, N8A, R10G, V11L counted along it

Protein	protease cleavage by SDS-PAGE and Coomassie blue staining [1]	catalytic activity after protease digestion (colorimetric substrate assay), FIG. 4B [2]	catalytic activity after protease digestion (colorimetric substrate assay), FIG. 4B [3]	catalytic activity after protease digestion (colorimetric substrate assay, N-Methoxysuccinyl-Ala-Ala-Pro-Val p-nitroanilide), FIG. 4A [3]	protease cleavage by SDS-PAGE and Coomassie blue staining [4]
B1	the MMP12 protease cleaved the exemplary modified PPE proteins designated as Mutant 2 (3A)	catalytically-inactive after incubation with MMP12 or no protease	catalytically-active after incubation with MMP12	catalytically-active after incubation by MMP12, relative to the activity of the native PPE as a control	the MMP12 protease cleaved the exemplary modified PPE proteins designated as ... Mutant 3 (3B)
B2	–	–	partially-catalytically-active after incubation with MMP7	–	–
